{"source": "paper PMC13017536", "about": "(Nature, 2026)", "binders": {"B1": {"name": "LetB (lipophilic envelope-spanning tunnel B), untagged (natural protein, E. coli, UniProt P76272 1-877, looked up)", "chain": "MSQETPASTTEAQIKNKRRISPFWLLPFIALMIASWLIWDSYQDRGNTVTIDFMSADGIVPGRTPVRYQGVEVGTVQDISLSDDLRKIEVKVSIKSDMKDALREETQFWLVTPKASLAGVSGLDALVGGNYIGMMPGKGKEQDHFVALDTQPKYRLDNGDLMIHLQAPDLGSLNSGSLVYFRKIPVGKVYDYAINPNKQGVVIDVLIERRFTDLVKKGSRFWNVSGVDANVSISGAKVKLESLAALVNGAIAFDSPEESKPAEAEDTFGLYEDLAHSQRGVIIKLELPSGAGLTADSTPLMYQGLEVGQLTKLDLNPGGKVTGEMTVDPSVVTLLRENTRIELRNPKLSLSDANLSALLTGKTFELVPGDGEPRKEFVVVPGEKALLHEPDVLTLTLTAPESYGIDAGQPLILHGVQVGQVIDRKLTSKGVTFTVAIEPQHRELVKGDSKFVVNSRVDVKVGLDGVEFLGASASEWINGGIRILPGDKGEMKASYPLYANLEKALENSLSDLPTTTVSLSAETLPDVQAGSVVLYRKFEVGEVITVRPRANAFDIDLHIKPEYRNLLTSNSVFWAEGGAKVQLNGSGLTVQASPLSRALKGAISFDNLSGASASQRKGDKRILYASETAARAVGGQITLHAFDAGKLAVGMPIRYLGIDIGQIQTLDLITARNEVQAKAVLYPEYVQTFARGGTRFSVVTPQISAAGVEHLDTILQPYINVEPGRGNPRRDFELQEATITDSRYLDGLSIIVEAPEAGSLGIGTPVLFRGLEVGTVTGMTLGTLSDRVMIAMRISKRYQHLVRNNSVFWLASGYSLDFGLTGGVVKTGTFNQFIRGGIAFATPPGTPLAPKAQEGKHFLLQESEPKEWREWGTALPK"}}, "molecular_target": "T1, His-tagged LetA (N-terminal 6×His2xQH-TEV-tagged LetA) (E. coli, UniProt P0AD03 1-427)", "T1 sequence (looked up)": "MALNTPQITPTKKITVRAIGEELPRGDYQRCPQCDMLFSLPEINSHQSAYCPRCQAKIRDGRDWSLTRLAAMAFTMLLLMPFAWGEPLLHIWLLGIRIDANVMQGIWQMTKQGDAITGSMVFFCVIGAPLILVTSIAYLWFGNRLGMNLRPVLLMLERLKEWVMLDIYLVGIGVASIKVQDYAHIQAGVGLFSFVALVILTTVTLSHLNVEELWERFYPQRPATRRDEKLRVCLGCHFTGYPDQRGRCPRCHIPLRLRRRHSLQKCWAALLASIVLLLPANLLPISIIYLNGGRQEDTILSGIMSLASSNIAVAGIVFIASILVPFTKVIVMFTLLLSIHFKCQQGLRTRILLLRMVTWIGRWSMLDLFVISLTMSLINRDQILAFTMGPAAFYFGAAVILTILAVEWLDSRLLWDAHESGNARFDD", "experiment": "cryo-EM structure"}
{"binder": "B1", "values": [{"measurement": "stoichiometry N", "result": 6, "unit": "LetB per LetA"}]}
